The numbers were not newly measured in paper PMC5382571, which cites them from elsewhere.

Like-named read-outs stand apart in the source and are kept apart here. Where only a bound is given, the exact number is not on record here.

The target in series [1] is PCNA (Homo sapiens) (UniProt P12004).
Series [2] has the same target. This is another data set of the same source.

UniProt P12004, sequence (P12004 whole entry): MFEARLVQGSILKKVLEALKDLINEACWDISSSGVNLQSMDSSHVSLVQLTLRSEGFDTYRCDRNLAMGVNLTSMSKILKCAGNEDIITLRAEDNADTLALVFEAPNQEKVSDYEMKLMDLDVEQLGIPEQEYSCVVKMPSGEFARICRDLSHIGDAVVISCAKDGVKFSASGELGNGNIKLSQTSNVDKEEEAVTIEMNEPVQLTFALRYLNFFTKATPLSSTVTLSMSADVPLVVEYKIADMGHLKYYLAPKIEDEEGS

Turning to “DNA polymerase delta (from UniProt P28340)”, the Kd (usually the concentration at which binding is half-saturated) in the series with PCNA (Homo sapiens) [1] is under 10 nM.

Consider RFC (from UniProt P35251), for which the Kd in the series with PCNA (Homo sapiens) [2] is 0.2 nM.
